Experimental data: the nanobody polyreactivity screen of Harvey et al. (2022)

Assay: yeast display, Sf9 membrane polyspecificity reagent, FACS + sequencing; frameworks hold sequencing errors
Outline: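 Genes from sorted yeast were amplified by colony PCR, read by MiSeq 2 × 250 sequencing and filtered on CDR length. These cells carried a synthetic nanobody library in Saccharomyces cerevisiae BJ5465 and were sorted by FACS into low and high (top ~1%) gates on anti-HA and streptavidin fluorescence. Polyreactivity is labelled according to the gate of origin.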

Row | Sequence | polyreactivity (PSR sort gate)
1 | QVQLVESGGGLVQAGGSLRLSCAASGSTIEANAMGWYRQAPGKERELVAVNTWTGGSTYYADSVKGRFTISRDNAKNTVYLQMNSLKPEDTAVYYCAADGVVPGRFFWPAHEYDYWGQGTQVTVSS | low polyreactivity
2 | QVQLVESGGGLVQAGGSLRLSCAASGSTFLVYAMGWYRQAPGKERELVAAITQIDGSTYYADSVKGRFTISRDNAKNTVYLQMNSLKPEDTAVYYCAARYFWTYEYDYWGQGTQVTVSS | low polyreactivity
3 | QDQLVESRGGLVQAGGSLRLSCAAYGRTFIPYAMGWNSQATGKERELVAAITVRGSSTYYADSVKGRFTISRDNAKNTVYFQMNSLKPEDTAIYYCATDRRYRAFYYWGQGTQVTVSS | high polyreactivity
4 | QVQLVESGGRLVQAGGSLRLSCAASGRIFYNYSMGWYRQAPGKERELVATIRYRGGSTYYADSVKGRFTISRDNAKNTVYLQMNSLKPEDTAVYYCAARFNYNRDYPYYSWGQGTQVNVSS | high polyreactivity
5 | QVQLVESGGGLVQAGGSLRLSCAASGFSFPPYAMGWYRQAPGKERELVAAITTSGGSTYYADSVKGRFTISRDNAKNTVYLQMNSMKPEDTAVYYCAADWRYLGYTAMDYWGQGTQVTVSS | low polyreactivity
6 | QVQLVESGGGLVQAGGSLRLSSAASGRTFQTNAMGWYRQAPGKERELVAAISSTGGSTYYADSVKGRFTISRDNAKNTVYLQMNSLKPEDTAVYYCNAGRTYRYDFWGQGTQVTVSS | high polyreactivity
7 | QVQLQESGGGLVQAGGDLRLSCEASGNIFRDYIMGWYRQAPGKEREFVAGIDRGANTNYADSVKGRFTISRDNAKNTVYLQMNSLQPEDTAVYYCAVHTAIVPDFIYWGQGTQVTVRS | low polyreactivity
8 | QVQLVESGGGLVQAGGSLRLSCAASGSTFQLYAMGWYRQAPGKEREFVAAIRGRGGNTYADSVKGRFTISRDNAKNTVFLQMNSLKPEDTAVYYCAAPLLRDLRSPYSYNYWGQGTQVTVSS | low polyreactivity
9 | QVQLVESVGGLVQAGGSLRLSCTATGSNFGYNAMGSYRQAPGKEREFVAAISWRGGSTYYADSVKGRLTISRDYAKNTVYLQMNSLKPEDTAVYYCAAVPQGSKRGYYYWGQGTQVTVSS | high polyreactivity
10 | QVQLVESGGGLVQAGGSLRLSCAASGFIFGSNAMGWYRQAPGKERELVATITKRGGTTYYADSVKGRFTISRDNAKNTVYLQMNSLKPEDTAVYYCNRSGPGFYSTRFNYWGQGTQVTVSS | high polyreactivity
11 | QVQLVESGGGLVQAGGSLRLSCAASGFTFPWYTMGWYRQAPGKERELGAAINSRGGSTYYADSVKGRFTISRDNAKNTVYLQMNSLKPEDTAVYYCATRSFGRMDYWGQGTQVTVSS | high polyreactivity
12 | QVQLVESGGGIVQAGGSLRLSCAASGSIFSGYAMGWYRQAPGKERELVAAIDWSGGTTYYADSVKGRFTISRDNAKNTVYLQMKSLKPEDTAVYYCAAKYPWYLSKDTLYYWGQGTQVTVSS | low polyreactivity
13 | QVQLVESGGGLVQAGGSLRLSCAASGFIFKSYAMGWYRQAPGKERELVAAITSGGSTYYADSVKGRFTISRDNAKNTVYLQMNSLKPEDTAVYYCATRYRFGWGLSWYDYWGQGTQVTVSS | high polyreactivity
14 | QVQLVESGRGIVQAGGSLRLSCAASGSTFAVNAMGWYRQAPGKERELVAAISTGGSTNYADSVKGRFTISRDNEKNTVFLQMNSLKPEDTAVYYCAAEHPVTYPTSKFDYWGQGTQVTVSS | low polyreactivity
15 | QVQLVESGGGLVQAGGFLRLSCASSGSTFIYYAMGWYREAPGKERELVAAISWSGGRTYYADAVKGRFTISRDNAKNTVYLQMTSLKPEDTAVDYCAAESYYSDGYPGVDYWGQATQVTVSS | high polyreactivity
16 | QVQLVESGGGLVQAGGSLRLSCAASGSIFWYYDMGWYRQAPGKERELVATISRTGRTYYADSVKGRFTISRDNAKNTVYLQMNSLKPEDTAVYYCAAVPRGWFSYPSGYDYWGQGTQVTVSS | high polyreactivity
17 | QVQLVESGGGVVQAGGSLRLSCAATGSTFYSYAMGWYRQAPGKEREFVASITRSGVRTYYADSVKGRFTISRDNAKNTVYLQMNSLKPDDTAFYYCAAERYYFPRSYRYGYWGQGTQVTVSS | low polyreactivity
18 | QVQLVESGGGLVQAGGSLRLICAASGRTFWNYAMGWYRQAPGKERELVAVIRFSDGSTYYADSVKGRFTISRDNAKNTVYLQMNSLKPEDTAVYYCAAKGPRRWGSGFDYWGQGTQVTVSS | low polyreactivity
19 | QVQLVESAGGLVQAGGSLRLSCAASGSTFVTYAMGWYRQAPGKERELVAAISSTGTGRTYYADSVKGRFTISRDNAKNTVYLQMNSLKPEDTAVYSCAADATSPLTWFDYWGQGTQVTVSS | low polyreactivity
20 | QVQLVESGGGLVQAGGSLRLSCAASGRTFYYAMGWYRQAPGKERELVASITWSGGITTYADSVKGRFTISRDNAKNTVYLQMNSLKPEDTAVYSCAAQVIKGRTYQLGDYWGQGTQVTVSS | high polyreactivity
21 | QVQLVESGGGLVQAGGSLRLSCAASGFISSRYAMGWYRQAPGKERELVASINWSGGSTYYADSVKGRFTISRDNAKNTVYLQMNSLKPEDTAVYYCNRVLDPTNKYYYWGQGTQVTVSS | high polyreactivity
22 | QVQLVESGGGLVQAGGSLRLSCAASGFTFYGNSMGWYRQATGKERELVAAITSGGSTYYADSVKGRFTISRDNAKNNVYLQMNSLKPEDTAVYYCAAVNGWRRVKRFDYWGQGTQVTVSS | high polyreactivity

Row | Sequence | polyreactivity (PSR sort gate)
23 | QVQLVESGGRLVQAGGSLRLSCAASGFTFGAYAMGWYRQAPGKERELVATIRYSGDSTYYADSVKGRFTISRDNAKNTVYLQMNSLKPEDTAVSSCAAYSTEGGGSPDWFESFDYWGQGTQVTVSS | low polyreactivity
24 | QVQLVESGGGLVQAGGSLRLSCAASGFIFYHYAMGWYRQAPGKERELVAAISWNGGRTYYADSVKGRFTISRDNAKNTVYLQMNSLKPEDTAVYYCAAPVLTSDYTLDSYYWGQGTQVTVSS | high polyreactivity
25 | QVQLVESGGGLVHAGGSLRLSCAAWSIFYLNAMGWYRQAPGKERELVAAISSAGSTYYADSVKGRFTISRDNAKNTVYLQMNSLKPEDTAVYYCAAYWYDSPGVTEIWYDYWGQGTQVTVSS | low polyreactivity
26 | QVQLVESGGGLVQAGGSLRLSCAASGSIFRLYAMGWYRQAPGKERELVAAITRGDSTNYADSVKGRFTISRDNAKNTVYLQMNSLKPEDTAVYYCAVTGRLYAHPQGYDYWGQGTQVTVSS | low polyreactivity
27 | QVQLVESGGGLVQAGGSLRLSCAASGFTFGSNAMGWYRQAPGKEREFVAAISRSGSRTYYADSVKGRFTISRDNAKNTVYLQMNSLKPEDTAVYYCNARSGEISQRHMDYWGQGTQVTVSS | high polyreactivity
28 | QVQLVESGGGLVQAGGSLRLSCAASGLTFYYYAMGWYRPAPGKERELVARISSGTSTYYADSVKGRFTISRDNAKNTVYLQMNSLKPEDTAVYYCNARRKLGSTHGPWGGLEYWGQGTQVTVSS | low polyreactivity
29 | QVQLVESGGGLVQAGGSLRLSCAGSGFSFPNNGMGGYRQAPGKERELVAAIRSSGGSTYYADSVKGRFTISRDNAKNTVYLQMNSLKPEDTAVYYCNARRRGGYVGRPRYPVAAYDYWGQGTQVTVSS | low polyreactivity
30 | QVQLVESGGGLVQAGGSLRLSCAASGRIFDHNAMGWYRQAPGKERELVAAINYSDDSTYYADSVKGRFTISRDNAKNTVYLQMNSLKPEDTAVYYCNADVGSEYSDKYDYWGQGTQVTVSS | low polyreactivity
31 | QVQLVESGGGLVQAGGSLRLSCAASGSIYYRYAMGWYRQAPGKERELVAAISKRGGSTYYADSVKGRFTISRDNAKITVYLQMNRLKPEDTAVYYCAAEVSSFLYTPSYSTDDYWGQGTQVTVSS | high polyreactivity
32 | QVQLVESGGGLVQAGGSLRLSCAASGRTFPVNAMGGYRQAPGKERELVAVINWGGTSTYYADSVKGRFTISRDNAKNTVYLQMNSLKPEDTAVYYCAARARYPGVGYNYWGQGTQVTVSS | high polyreactivity
33 | QVQLVESGGRLVQAGGSLRISRAASGFTFPSYTMGWYRQAPGKERELVAAITSSGGNTYYADSVKGRFTISRDNAKNTVYLQMNSLKPEVTAVYYCATVSVRWPSNDHVRYDYWGQGTQVTVSS | low polyreactivity
34 | QVQLVDSGGGLVQAGGSLRLICAASGSIFIDKAMGWYRQAPGKERELVAAISWSGGRTYYADSVKGRFTISRDNAKNTVYLQMNSLKPEDTAVYYCAVDFRHPYDYDYWGQGTQVTVSS | high polyreactivity
35 | QVQLVESGGGLVQAGGSLRLSCAASGRTFKLYAMGWYRQAPGKERALVAAITESGGSTYYADSVKGRFTISRDNAKNTVYLQMNSLKPEDTAVYYCAAYASAGTRGGYDYWGQGTQVTVSS | low polyreactivity
36 | QVQLVESGGGLVQAGGRLRLSCAASGITFWTYAMGWYRQAPGKERELVARISKSGARTFYADSVKGRFTISRDNAKNTVYLQMNSLKPEDTAVYYCAADRGPRPVTWYDYWGQGTQVTVSS | high polyreactivity
37 | QVQLVESGGGLVQAGGSLRLSCAASGSTFRYYAMGWYRQAPGKERELVAAISWSGGSTYYADSVKGRFTISRDNAKNTVYLQMNSLKPEDTEVYYCNKAWFPYYYYRFDYWGQGTQVTVSS | high polyreactivity
38 | QVQLVESGGGLVQAGGSLSLSCAASGSTFYFNAMGWYRQAPGKERELVATIRSGDSTYYADSVKGRFTISRDNAKNTVYLQMNRLKPEDTAVYYCAAVSTYFSSTFTEYDYWGQGTQVTVST | low polyreactivity
39 | QVLLQESGGCLVQAGGSMRLSCAASGYISSWYPMGWYRQAPGKEREFVATIAPGATTYYADSVKGRFTISRDYAKTTVYLQMNSLKPEDTAVSYCAAGPENNDFYSYWGQGTQVTVSR | low polyreactivity
40 | QVQLVESGGGLVQAGGSLRLSCAASGFTFVYYVMGWYRQAPGKERELVAAINAGGGSTYYADSVKGRFTISRDNAKNTVYLQMNSLKPEDTAVYYCNARVRVRLGRNWSSYYYCGQGTQVTVSS | high polyreactivity
41 | QDQLVESGGGLVQAGGSLRLSCAASGGTFKFYAMGWYRQAPGKERELVAAITSGGSTSYADSVKGRFTISRDNAKNTVYLQMNSLKPEDTAVYYCNADFYQRYGVFSSRRYYYWGQGTQVTVSS | high polyreactivity
42 | QVQLVESGGGLVQAGGSLRLSCAASGIIFTYYAMGWYRQAPGKERELVASISSSGTSTYYADSVKGRFTISRDNAKNTVYLQMNSLKPEDTAVYYCAADWTGSNGVDYWGQGTQVTVSS | low polyreactivity
43 | QVQLVESGGGLVQAGGSLRLSCAASGNTFRWYDMGWYRQAPGKERELVAGITRVGCTNYADSVKGRFTISRDNAKNTVYLQMNSLKPEDTAVYYCAARPRWFYGYPYGIIGYDYWGQGTQVTVSS | high polyreactivity
